Measured values as given in patent US20200199231A1.

Biological target: human CD20 (human) (UniProt P11836)
Test: flow cytometry on Daudi cells (CD20-positive, CD3-negative); PE-conjugated goat anti-human IgG F(ab')2; geomean (PE)

human CD20 (human), sequence (P11836 whole entry): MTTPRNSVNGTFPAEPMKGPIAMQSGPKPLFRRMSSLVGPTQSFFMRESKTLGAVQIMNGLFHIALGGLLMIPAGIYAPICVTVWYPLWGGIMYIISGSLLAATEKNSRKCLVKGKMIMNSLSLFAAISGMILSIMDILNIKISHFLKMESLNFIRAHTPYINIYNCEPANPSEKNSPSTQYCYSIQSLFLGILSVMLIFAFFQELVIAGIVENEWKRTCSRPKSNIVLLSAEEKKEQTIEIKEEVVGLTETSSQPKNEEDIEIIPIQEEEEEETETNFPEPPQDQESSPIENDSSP

| EC50 (read off the curve) [µg/mL] | Substance |
| --- | --- |
| 0.6 | IgG1-GA101 (antibody) |
| 0.7 | IgG1-RTX (antibody) |
